Source: US20250163182A1 (Janssen / Centocor, published 2025)

What was measured:
human ENPP3 on cells [1] = target: T1, human ENPP3 on cells (human, UniProt O14638 1-875); test: cell-based or functional assay
T1 sequence (looked up): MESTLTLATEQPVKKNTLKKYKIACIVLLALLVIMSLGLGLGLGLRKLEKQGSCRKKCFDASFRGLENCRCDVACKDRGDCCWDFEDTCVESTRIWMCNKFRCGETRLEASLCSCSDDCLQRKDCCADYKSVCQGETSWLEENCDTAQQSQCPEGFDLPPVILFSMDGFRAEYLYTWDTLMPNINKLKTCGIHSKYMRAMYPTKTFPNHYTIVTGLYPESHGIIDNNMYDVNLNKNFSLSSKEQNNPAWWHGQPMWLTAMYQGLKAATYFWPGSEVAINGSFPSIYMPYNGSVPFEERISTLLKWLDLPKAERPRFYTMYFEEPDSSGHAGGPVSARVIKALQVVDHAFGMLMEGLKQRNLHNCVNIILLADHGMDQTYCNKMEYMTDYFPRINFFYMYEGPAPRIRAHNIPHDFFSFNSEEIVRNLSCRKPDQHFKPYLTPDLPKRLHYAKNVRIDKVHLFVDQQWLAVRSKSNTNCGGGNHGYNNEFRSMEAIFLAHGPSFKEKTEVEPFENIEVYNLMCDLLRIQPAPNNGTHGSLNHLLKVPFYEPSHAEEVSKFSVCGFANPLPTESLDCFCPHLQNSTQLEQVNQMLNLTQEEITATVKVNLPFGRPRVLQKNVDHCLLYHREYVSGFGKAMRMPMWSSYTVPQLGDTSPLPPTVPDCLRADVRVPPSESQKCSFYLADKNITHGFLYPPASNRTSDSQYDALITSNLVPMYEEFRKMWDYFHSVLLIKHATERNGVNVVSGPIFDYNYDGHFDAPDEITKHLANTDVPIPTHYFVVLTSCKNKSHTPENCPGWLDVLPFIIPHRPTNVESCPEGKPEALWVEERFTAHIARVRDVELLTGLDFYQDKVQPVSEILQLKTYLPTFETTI

human CD3 = target: T2, human CD3 (human, UniProt P07766 23-126, limits assumed); test: affinity; method and construct not stated
T2 construct: also called CD3 epsilon

human ENPP3 = target: T3, human ENPP3 (human, UniProt O14638 46-875, limits assumed); test: affinity; method and construct not stated
T3 construct: neither the construct nor the method is stated; also called ectonucleotide pyrophosphatase/phosphodiesterase family member 3
T3 sequence (looked up): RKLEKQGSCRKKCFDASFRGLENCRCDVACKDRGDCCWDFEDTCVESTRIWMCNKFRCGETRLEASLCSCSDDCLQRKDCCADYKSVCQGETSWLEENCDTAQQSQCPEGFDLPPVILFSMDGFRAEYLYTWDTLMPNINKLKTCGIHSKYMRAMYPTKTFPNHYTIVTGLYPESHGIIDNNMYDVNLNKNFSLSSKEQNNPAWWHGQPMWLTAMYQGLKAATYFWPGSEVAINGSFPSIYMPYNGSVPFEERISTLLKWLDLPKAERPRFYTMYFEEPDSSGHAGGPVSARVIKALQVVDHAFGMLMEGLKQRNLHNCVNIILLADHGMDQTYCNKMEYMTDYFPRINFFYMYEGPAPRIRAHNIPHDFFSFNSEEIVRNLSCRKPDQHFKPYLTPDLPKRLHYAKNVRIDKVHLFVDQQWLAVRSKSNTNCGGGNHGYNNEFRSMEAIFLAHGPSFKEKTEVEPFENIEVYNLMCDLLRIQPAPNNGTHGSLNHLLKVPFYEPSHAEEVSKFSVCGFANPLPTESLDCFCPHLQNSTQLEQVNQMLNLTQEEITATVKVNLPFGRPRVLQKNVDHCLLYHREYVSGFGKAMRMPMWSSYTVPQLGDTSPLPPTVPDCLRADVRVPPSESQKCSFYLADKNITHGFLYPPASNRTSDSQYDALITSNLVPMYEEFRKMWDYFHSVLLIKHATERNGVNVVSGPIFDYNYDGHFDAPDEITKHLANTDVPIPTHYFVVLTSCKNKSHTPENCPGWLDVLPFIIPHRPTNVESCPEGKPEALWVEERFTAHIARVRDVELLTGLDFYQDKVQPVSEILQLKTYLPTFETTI

human ENPP3 on cells [2] = target: T1, human ENPP3 on cells; test: flow cytometry on A704 cells
human ENPP3 on cells [3] = target: T1, human ENPP3 on cells; test: flow cytometry on CHO ENPP3 OE cells
human CD3 on T cells = target: T4, human CD3 on T cells (human, UniProt P07766 23-207); test: flow cytometry on human T cells, donor 110040278
T4 construct: on T cells it stands in the TCR-CD3 complex; also called human T cells; T cells isolated from healthy human donors

ENPP2 on CHOK1 cells = ENPP2 on CHOK1 cells (UniProt Q13822 36-863); test: flow cytometry on CHO cells overexpressing ENPP2

T2 sequence (P07766 23-126 limits assumed): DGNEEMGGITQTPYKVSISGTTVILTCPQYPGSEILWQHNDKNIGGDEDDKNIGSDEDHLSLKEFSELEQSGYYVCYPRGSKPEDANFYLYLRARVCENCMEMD
T4 sequence (P07766 23-207 limits assumed): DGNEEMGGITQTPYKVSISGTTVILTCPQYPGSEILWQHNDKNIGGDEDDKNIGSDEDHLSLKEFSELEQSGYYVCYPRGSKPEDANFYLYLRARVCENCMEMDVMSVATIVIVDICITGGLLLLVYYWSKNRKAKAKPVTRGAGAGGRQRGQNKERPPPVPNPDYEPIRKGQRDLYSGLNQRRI

B1: NPP3B815 (bispecific antibody, human IgG1, kappa, L234A L235A)
heavy 1: EIVLTQSPATLSASPGERVTLSCSASSSVSYMNWYQQKPGCAPRRWIYDSSKLASGVPARFSGSGSGRDYTLTISSLEPEDFAVYYCQQWSRNPPTFGGGTKVEIKGGGSGGSGGCPPCGGSGGQVQLVQSGAEVKKPGSSVKVSCKASGYTFTRSTMHWVKQAPGQGLEWIGYINPSSAYTNYNQKFQGRVTLTADKSTSTAYMELSSLRSEDTAVYYCASPQVHYDYAGFPYWGCGTLVTVSSEPKSSDKTHTCPPCPAPEAAGGPSVFLFPPKPKDTLMISRTPEVTCVVVSVSHEDPEVKFNWYVDGVEVHNAKTKPREEQYNSTYRVVSVLTVLHQDWLNGKEYKCKVSNKALPAPIEKTISKAKGQPREPQVYTLPPSREEMTKNQVSLWCLVKGFYPSDIAVEWESNGQPENNYKTTPPVLDSDGSFFLYSKLTVDKSRWQQGNVFSCSVMHEALHNHYTQKSLSLSPGK
heavy 2: EVQLVESGGGRVKPGGSLRLSCAASGFTFSDYSMNWVRQAPGKGLEWVSSISSISSYVKYADSVKGRFTMSRDNAKNSLFLQMNSLRDEDMAVYYCARGHYFDYWGQGTLVTVSSASTKGPSVFPLAPSSKSTSGGTAALGCLVKDYFPEPVTVSWNSGALTSGVHTFPAVLQSSGLYSLSSVVTVPSSSLGTQTYICNVNHKPSNTKVDKKVEPKSCDKTHTCPPCPAPEAAGGPSVFLFPPKPKDTLMISRTPEVTCVVVSVSHEDPEVKFNWYVDGVEVHNAKTKPREEQYNSTYRVVSVLTVLHQDWLNGKEYKCKVSNKALPAPIEKTISKAKGQPREPQVYTLPPSREEMTKNQVSLSCAVKGFYPSDIAVEWESNGQPENNYKTTPPVLDSDGSFFLVSKLTVDKSRWQQGNVFSCSVMHEALHNRFTQKSLSLSPGK
light: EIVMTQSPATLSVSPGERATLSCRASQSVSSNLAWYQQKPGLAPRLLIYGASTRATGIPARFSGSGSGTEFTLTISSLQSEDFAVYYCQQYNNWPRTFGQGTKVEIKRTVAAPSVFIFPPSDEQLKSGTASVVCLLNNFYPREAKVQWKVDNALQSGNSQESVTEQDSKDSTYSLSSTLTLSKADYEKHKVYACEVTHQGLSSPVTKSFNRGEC
notes: HC2 carries the NPP3B56 Fab and the hole T366S, L368A, Y407V; Fc with L234A, L235A, D265S; The CPPC linker cysteines form disulfides with engineered Cys at L42 and H105 (Chothia); also called NPP3B56×CD3B2030-N106A; ENPP3×CD3 (NPP3B815)
Human ENPP3 on cells [1]
  killing EC50; A704; PBMC donor 110040278; E:T 3:1: 0.052 nM
  killing EC50; A704; PBMC donor 110040278; E:T 5:1: 0.028 nM
  killing EC50; A704; PBMC donor 110042496; E:T 3:1: 0.097 nM
  killing EC50; A704; PBMC donor 110042496; E:T 5:1: 0.061 nM
  killing EC50; A704; PBMC donor 110042593; E:T 1:1: 0.124 nM
  killing EC50; A704; PBMC donor 110042593; E:T 3:1: 0.039 nM
  killing EC50; A704; PBMC donor 110042593; E:T 5:1: 0.015 nM
  killing EC50; A704; PBMC donor 110044049; E:T 1:1: 0.131 nM
  killing EC50; A704; PBMC donor 110044049; E:T 3:1: 0.052 nM
  killing EC50; A704; PBMC donor 110044049; E:T 5:1: 0.016 nM
  killing EC50; A704; PBMC donor 110048457; E:T 3:1: 0.046 nM
  killing EC50; A704; PBMC donor 110048457; E:T 5:1: 0.013 nM
  killing EC50; A704; PBMC donor 888668965; E:T 1:1: 0.107 nM
  killing EC50; A704; PBMC donor 888668965; E:T 3:1: 0.036 nM
  killing EC50; A704; PBMC donor 888668965; E:T 5:1: 0.015 nM
  killing EC50; VMRCRCW; PBMC donor 110040278; E:T 5:1: 0.033 nM
  killing EC50; VMRCRCW; PBMC donor 110042496; E:T 5:1: 0.065 nM
  killing EC50; VMRCRCW; PBMC donor 110042593; E:T 5:1: 0.033 nM
  killing EC50; VMRCRCW; PBMC donor 110044049; E:T 5:1: 0.051 nM
  killing EC50; VMRCRCW; PBMC donor 110048457; E:T 5:1: 0.063 nM
  killing EC50; VMRCRCW; PBMC donor 888668965; E:T 5:1: 0.062 nM
Human CD3
  Kd: 110 nM
Human ENPP3
  Kd: 0.92 nM
Human ENPP3 on cells [2]
  EC50: 1.01 nM
Human ENPP3 on cells [3]
  EC50: 0.51 nM
Human CD3 on T cells
  EC50: 253 nM
ENPP2 on CHOK1 cells
  binding result: no binding (tested: 100 nM)
